Data: US20220251233A1 (VERSEAU THERAPEUTICS, published 2022)
Where a chain is given by its changes, count along the chain named.

T1: Human CD53-CHO (full-length human CD53 over-expressed on CHO-K1 cells) (human, UniProt P19397 1-219)
T1 construct: Tetraspanin cell-surface antigen
T1 sequence: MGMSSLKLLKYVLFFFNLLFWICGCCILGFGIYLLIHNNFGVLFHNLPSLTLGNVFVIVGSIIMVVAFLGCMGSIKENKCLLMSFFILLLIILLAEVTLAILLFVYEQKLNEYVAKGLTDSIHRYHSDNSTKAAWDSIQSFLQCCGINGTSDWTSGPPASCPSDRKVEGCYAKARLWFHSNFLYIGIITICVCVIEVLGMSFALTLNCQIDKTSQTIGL

B1: 3A21 (antibody, V domains shown)
VH: EVQLQQSGAELVRPGASVKLSCTASGFNIKDDYMHWVKQRPEQGLEWIGLIDPENGYAEYASKFQGKATITADTSSNTANLQLNSLTSEDTAVYYCTTWGLLRNYVMDYWGQGTSVTVSS
VL: DIVMTQAAFSNPVTLGTSASISCSSSKSLLHSNGITYLYWYLQRPGQSPQLLIYRMSNLASGVPDRFSGSGSGTDFTLRVNRVEADDVGVYYCAQMLERPRTFGGGTKLEIK
notes: Murine anti-human CD53 mAb purified from subcloned hybridoma; detected with anti-mouse IgG
B2: 10B08 (antibody, V domains shown)
VH: QLQQSGTELVRPGASVKLSCTSSGFNIKDDFMHWVKQRPEQGLEWIGWIDPENGATAYASKFQGKATITADTSSNTAYLQLSSLTSEDTAVYYCTTFGDYYGGRKDYWGQGTTLTVSS
VL: B1 VL with R79G, V80I, N81S, D86E
notes: as for B1
B3: 9E17 (antibody, V domains shown)
VH: QLQQSGAEFVRPGASVKLSCTASGFNIKDDYIHWVKQRPEQGLEWIGRIDPANGYTEYAPKFQGKATITSDTSSNTAYLQLSSLTSEDTAVFYCVWHWDYWGQGTTLTVSS
VL: B1 VL with S26Y, L30Q, S32N, Y41F, Q50H, V80I, N81S, D86E, R101F, G105T
notes: as for B1
B4: 6J17 (antibody, V domains shown)
VH: EVQLQQSGAELVRPGASVKLSCTASGFNIKDDYMHWVRQRPKQGLEWIGRVDPANGNTKYAPKFQDKATMTADTSSNTAYLRLSSLTSEDTAVYYCAGYFYYSHDGGFACWGQGTLVTVSA
VL: DIVMTQGSPSIPVTPGESVSISCRSSKSLLHRNGNIYLYWFLQRPGQSPQRLIYYMSNLASGVPDRFSGRGSGTDFTLRISRVEAEDVGVYYCMQGLEYPFTFGTGTKLEIK
notes: as for B1
B5: 10N22 (antibody, V domains shown)
VH: EVQLQQSGPELVKPGASVKISCKASGYTFTGYFMNWVKQSHGKSLEWIGDLNPNNGGTNFNQRFKGKATLTVDKSSSTAYMELRSLTSEDSAVYYCARDGYDGGYAMDYWGQGTSVTVSS
VL: DVLMTQTPLSLPVSLGDQASISCRSSQNIVHSSGNTYLEWYLQKPGQSPKLLIFKVSNRFSGVPDRFSGSGSGTDFTLKISRVEAEDLGVYYCFQGSHVPYTFGGGTKLEIK
notes: as for B1
B6: 4B19 (antibody, V domains shown)
VH: QVQLQQSGTELMKPGASVKLSCKATGYTFTGYWIEWVKQRPGHGLEWIGEILPGSYSTNYNEKFKGKATFTADSSSNTAYMQLSSLTTEDSAIYYCTRDSNYEWFDVWGTGTTVTVSS
VL: DVVMTQTPLSLSVTIGQPASISCKSSQSLLHRDGETYLNWLLQRPGQSPKLLIYLVSKLESGIPDRFSGSGSGTDFTLKISRVEVEDLGVYYCLQHTHFPYTFGSGTKLEIK
notes: as for B1
B7: 4N19 (antibody, V domains shown)
VH: EVQLQQSVAELVRPGASVKLSCTASGFSIKNTYMHWVKQRPEQGLEWIGRIDPANGYTQHAPKFQGKATIITDTSSNTAYLQLSSLTSEDTAIYYCAGGGPYYAMDYWGQGTSVTVSS
VL: DIVMTQAAPSVPVTPGESVSISCRSSKSLLHSNGDTYLYWFLQRPGQSPQLLIYRMSNLASGVPDRFSGSGSGTAFTLRISRVEAEDVGVYYCMQHLEYPFTFGAGTKLELK
notes: as for B1
B8: 5F16 (antibody, V domains shown)
VH: EVQLQQSGAELVRPGASVKLSCTASGFNIEDDYVHWVKQRPEQGLEWIGRIDPANGNIKYAPKFQDKATITADTSSNIAYLQLSSLTAEDTAVYYCARSGTGAMDYWGQGTSVTVSS
VL: B7 VL with L38F, Y99F, F101L, A105V
notes: as for B1
B9: 6K14 (antibody, V domains shown)
VH: B8 VH with E10D, E30K, V34I, E42V, I58T, K63M, Q65R, D66G, I78T, A88S
VL: B7 VL with P12F, L38F, G73T, Y99F, F101L
notes: as for B1
B10: 2M22 (antibody, V domains shown)
VH: EGQLQQSGSELVRPGASVKLSCTASGFNIKDDYVHWVKKRPEQGLEWIGRIDPANGYSHYVPKFHDKATITADTSSNTAYLQLNSLTSDDTAVYYCASGSGSYAMDYWGQGTSVTVSS
VL: B7 VL with D1E, L59V, A85T, Y99S, F101Y, A105G, L111I
notes: as for B1
B11: 6M01 (antibody, V domains shown)
VH: EVLLQQSVADLVRPGASVKLSCTASGFNIKNTYMHWVSQRPEQGLEWIGRIDPANGYTQCAPSFQGKATITADTSSNTAYLHLSSLSSEDPAIYYCAGGSYYSAMDYWGQGTSVTVSS
VL: B7 VL with V11L, A105S, L111I
notes: as for B1
B12: 10F09 (antibody, V domains shown)
VH: EVQLQQSVAELVRPGASVKLSCTASGFNIKNTYMHWVKQRPAQGLEWIGKIDPANGFTKHAPRFQGKATITSDTSSNTAYLQLSSLTSEDTAIYYCASGWDAAFAYWGQGTLVTVSA
VL: B7 VL with N58K, Y99H, F101L
notes: as for B1
B13: 10H16 (antibody, V domains shown)
VH: EVQLQQSGAELVRPGASVKLSCTVSGFNIKDDFMNWVRQRPEQGLEWIGRIDPENGNTKYAPKFQDKATITADTSSNTAHLHLSSLTSEDTAVYFCARWIPPYWGQGTLVTVSA
VL: B7 VL with P12H, V19A, V63A, H96L, F101Y, A105G, L111I
notes: as for B1
B14: 2M05 (antibody, V domains shown)
VH: EVQLQQSVAELVRPGASVKLSCTTSGFNIKDTYMHWVKQRPEQGLEWIGRIDPANGHTKYAPKFQDKATIAADTSSNTAYLQLSSLTSEDTAIYYCACGWDAAFAFWGQGTLVTVSA
VL: B7 VL with S26G, V90I, M94L, Y99F, F101L
notes: as for B1
B15: 5K03 (antibody, V domains shown)
VH: EVQLQQSVAELVRPGASVKLSCTTSGFNIKNTYMHWVKQRPEQGLEWIGRIDPANGYTECAPKFQGKATITADTSSNTAYLQLSSLTSEDTAIYYCTRSGEDYAMDYWGQGTSVTVSS
VL: B7 VL with T14I, S26R, S32R, L51V, F101Y, A105G, L111I
notes: as for B1
B16: 5K16 (antibody, V domains shown)
VH: EVQLQQSVAELVRPGASVKLSCTASGFNIKNTYMYWVKQRPEQGLEWIGRIDPANGHTKCAPKFQGKATITADTSSNTAYLQLSSLTSEDSAIFYCARGEDYAMDYWGQGTSVTVSS
VL: B7 VL with A7S, L51V, H96L, A105S, L111I
notes: as for B1
B17: 5M13 (antibody, V domains shown)
VH: EVQLQQSVAELVRPGASVKLSCTASGFNIKNTYMHWVKQRPEQGLEWIGRLDPANGYTQSAPKFQGKATVTADTSSNTAYLHLSSLTSEDTAIYYCLYGNYYYAMAYWGQGTSVTVSS
VL: B7 VL with I2V, V11I, F101Y, A105G, L111I
notes: as for B1
B18: 4O24 (antibody, V domains shown)
VH: B12 VH with G26A, F57Y, H60Y, G66D, S72A, W100R, L112Q
VL: B7 VL with Y99H, F101L
notes: as for B1
B19: 1L17 (antibody, V domains shown)
VH: B7 VH with S28N, G49A, T58S, H60Y, I71T, T72A, Y94F, G100S, P101T, Y103S
VL: B7 VL with A105G, L111I
notes: as for B1
B20: 5G03 (antibody, V domains shown)
VH: EVQLQQSGAELVRPGASVKLSCTASGFNIKDDFMHWVRQRPDQGLEYIGRFDPAIGNAKYAPKFQDKATLTADTSSNTAYLHLSSLTSEDTAVYYCAIFYAYWGQGTLVTVSA
VL: DVVMTQTPLSLPVSLGDQASISCRSSQSLVHSNRNTYLHWYLQKPGQSPKLLIYKVSNRFSGVPDRFSGSGSGTDFTLKISRVEAEDLGVYFCSQSTHVPFTFGSGTKLEIK
notes: as for B1
B21: 10J06 (antibody, V domains shown)
VH: QVQLQQPGAELVKPGASVKLSCKASGYTFTSYWMHWVKQRPGQGLEWIGMIHPNSGSSNHNGKFRGKATLTVDKSSSTAYIQLSSLTSEDSAVYYCARDDYAETMDYWGQGTSVTVSS
VL: DVVMTQTPLSLSITIGQPASISCKSSQSLLYSDGKTYLNWFQQRPGQSPKRLMYQVSKLDPGIPDRFSGSGSETDFTLKISRVEAEDLGVYYCLQGTYYPWTFGGGTKLEIK
notes: as for B1
B22: 9J08 (antibody, V domains shown)
VH: QVQLQQPGAELVKPGASVKLSCKASGYTFTSCWMHWVKQRPGQGLEWIGMIHPNGYSSNYNGKFKNKATLTIDNSSGTAYMQLSGLTSEDSAVYYCARDDYAETMDYWGQGTSVTVSS
VL: B21 VL with I13V, F41L, K79R
notes: as for B1

The binders below were run against T1, Human CD53-CHO (full-length human CD53 …) (assay: flow cytometry on CD53-CHO cells, anti-mouse IgG AF647 gMFI, 4-parameter fit).
Description: Binding of anti-human CD53 antibodies was determined by flow cytometry for their ability to bind human CD53-CHO cells compared to parental CHO-K1 cells. All assay steps were performed in FACS buffer (phosphate buffered saline pH 7.4 supplemented with 2% fetal bovine serum). Twenty thousand cells were seeded in 384-well plates and washed twice with ice cold buffer. Cells were incubated with purified antibodies titrated 3-fold from 200 nM to 0.09 nM at 4° C. for 1 hour with gentle agitation, then washed twice with FACS buffer and incubated with anti-mouse IgG Alexa Fluor® 647 and incubated at 4° C. for 40 minutes. Cells were washed twice and resuspended in FACS buffer. Analysis was preformed on the IntelliCyt® iQue Screener and gMFI values for Alexa Fluor® 647 were generated. EC50 values were determined in GraphPad Prism8. Concentration was transformed from nM to Log 10 nM and curves were fit with a nonlinear regression of log(agonist) vs. response−Variable slope (four parameters) or Y=Bottom+(Top−Bottom)/(1+10\hat{ }((LogEC50−X)*HillSlope)). EC50 values for all anti-human CD53 antibodies can be found in Table 6, and representative binding curves can be found in FIG. 7. Binding to CD53-CHO is represented by closed symbols and binding to parental CHO-K1 cells is represented by open symbols.
With B1 the EC50 was 2.1 nM.
In the case of B2, the EC50 is reported as 3.1 nM.
Binder B3 has an EC50 of 2.1 nM.
Binder B4 has an EC50 of about 23 nM.
Work on B5 yielded an EC50 of about 8 nM.
With B6 the EC50 was 36 nM.
With B7 the EC50 was 2.5 nM.
Binder B8 has an EC50 of about 3 nM.
B9 was tested, and the EC50 was about 3 nM.
With B10 the EC50 was about 0.3 nM.
Binder B11 has an EC50 of about 2 nM.
B12 showed an EC50 of 25.4 nM.
B13 was tested, and the EC50 was about 8 nM.
Work on B14 yielded an EC50 of 4.6 nM.
B15 was tested, and the EC50 was about 2 nM.
In the case of B16, the EC50 is reported as 5.6 nM.
B17 was tested, and the EC50 was 11.1 nM.
With B18 the EC50 was 8.1 nM.
Binder B19 has an EC50 of about 2 nM.
B20 gave an EC50 of 9.1 nM.
B21 gave an EC50 of 82.5 nM.
B22 showed an EC50 of 2.7 nM.
